Experimental data taken from article PMC4610036 (Journal of molecular catalysis. B, Enzymatic, 2015).

Molecular target: the molecule itself
Assay: crystal structure

B1: β-ketoacyl thiolase B of Ralstonia eutropha (enzyme, UniProt Q0KBP1 1-394, looked up)
chain: MTREVVVVSGVRTAIGTFGGSLKDVAPAELGALVVREALARAQVSGDDVGHVVFGNVIQTEPRDMYLGRVAAVNGGVTINAPALTVNRLCGSGLQAIVSAAQTILLGDTDVAIGGGAESMSRAPYLAPAARWGARMGDAGLVDMMLGALHDPFHRIHMGVTAENVAKEYDISRAQQDEAALESHRRASAAIKAGYFKDQIVPVVSKGRKGDVTFDTDEHVRHDATIDDMTKLRPVFVKENGTVTAGNASGLNDAAAAVVMMERAEAERRGLKPLARLVSYGHAGVDPKAMGIGPVPATKIALERAGLQVSDLDVIEANEAFAAQACAVTKALGLDPAKVNPNGSGISLGHPIGATGALITVKALHELNRVQGRYALVTMCIGGGQGIAAIFERI
stoichiometry N: 4
